According to US20150322128A1 (Sanofi, published 2015):
Read-outs that look alike come from different tables or passages of the source. Square brackets hold non-standard residues; d marks the D form. Ends that are not written are not given here. Aib = CC(C)(N)C(=O)O

Columns and labels:
Test in all cases: cell-based or functional assay
[1] = target: T1, human glucagon receptor (human, UniProt P47871 26-477)
[2] = target: T2, human GLP-1 receptor (human, UniProt P43220 24-463)
[3] = target: T3, human GIP receptor (human, UniProt P48546 22-466)
T3 sequence (looked up): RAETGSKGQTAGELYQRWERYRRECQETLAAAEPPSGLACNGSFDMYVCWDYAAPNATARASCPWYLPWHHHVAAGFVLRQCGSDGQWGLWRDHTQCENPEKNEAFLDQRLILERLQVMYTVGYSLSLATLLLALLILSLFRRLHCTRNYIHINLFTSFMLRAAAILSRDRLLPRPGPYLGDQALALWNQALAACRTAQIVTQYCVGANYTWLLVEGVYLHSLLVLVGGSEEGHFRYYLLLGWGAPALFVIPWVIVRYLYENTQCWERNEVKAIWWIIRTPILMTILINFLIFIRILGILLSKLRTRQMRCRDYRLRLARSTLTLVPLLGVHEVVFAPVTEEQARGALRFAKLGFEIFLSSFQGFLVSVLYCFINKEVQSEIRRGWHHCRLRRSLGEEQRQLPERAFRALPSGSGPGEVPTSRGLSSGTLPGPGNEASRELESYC

[4] = target: T1, human glucagon receptor; remark: listed apart in the source
[5] = target: T2, human GLP-1 receptor; remark: listed apart in the source
[6] = target: T3, human GIP receptor; remark: listed apart in the source
[7] = target: T1, human glucagon receptor; remark: listed apart in the source
[8] = target: T2, human GLP-1 receptor; remark: listed apart in the source
[9] = target: T3, human GIP receptor; remark: listed apart in the source

T1 sequence (P47871 26-477): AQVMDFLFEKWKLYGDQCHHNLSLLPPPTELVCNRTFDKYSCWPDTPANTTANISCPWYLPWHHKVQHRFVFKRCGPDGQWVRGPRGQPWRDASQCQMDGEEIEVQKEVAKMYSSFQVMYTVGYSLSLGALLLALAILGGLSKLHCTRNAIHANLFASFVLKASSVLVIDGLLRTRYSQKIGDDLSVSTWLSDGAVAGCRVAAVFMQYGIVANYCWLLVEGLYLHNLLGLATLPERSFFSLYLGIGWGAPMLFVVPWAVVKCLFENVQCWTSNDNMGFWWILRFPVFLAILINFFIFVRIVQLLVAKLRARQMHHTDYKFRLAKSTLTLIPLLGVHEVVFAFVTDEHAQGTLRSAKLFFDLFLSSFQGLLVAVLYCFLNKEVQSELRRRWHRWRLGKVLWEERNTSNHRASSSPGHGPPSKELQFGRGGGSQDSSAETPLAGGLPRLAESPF

Row | Binder | EC50 hGlucagon-R [1] [nM] | EC50 hGLP-1R [2] [nM] | EC50 hGIP-1 [3] [nM] | EC50 hGlucagon-R [4] [nM] | EC50 hGLP-1R [5] [nM] | EC50 hGIP-1 [6] [nM] | EC50 hGlucagon-R [7] [nM] | EC50 hGLP-1R [8] [nM] | EC50 hGIP-R [9] [nM]
1 | HXQGTFTSDLSKQKDEEAARLFIEWLKAGGPSSGAPPPS (D-Ser at 2; Lys 14 side chain K(γE-γE-x53) = (S)-4-Carboxy-4-((S)-4-carboxy-4-hexadecanoylamino-butyrylamino)-butyryl-; C-terminal amide) [SEQ ID NO: 32] | 0.0055 | 0.0019 | 0.565 | 0.0055 | 0.0019 | 0.565 | – | – | –
2 | HXQGTFTSDLSKQKDEEAARLFIEWLXAGGPSSGAPPPS (D-Ser at 2; Lys 14 side chain K(γE-x53) = (S)-4-Carboxy-4-hexadecanoylamino-butyryl-; Aib at 27; C-terminal amide) [SEQ ID NO: 14] | – | – | – | 0.0247 | 0.0021 | 5.36 | 0.0247 | 0.0021 | 5.36
3 | HXQGTFTSDLSKQKDEEAARLFIEWLXAGGPSSGAPPPS (D-Ser at 2; Lys 14 side chain K(γE-x70) = (S)-4-Carboxy-4-octadecanoylamino-butyryl-; Aib at 27; C-terminal amide) [SEQ ID NO: 13] | – | – | – | 0.0068 | 0.0027 | 2.54 | 0.0068 | 0.0027 | 2.54
4 | HXQGTFTSDLSKQKDEEAARLFIEWLXAGGPSSGAPPPS (D-Ser at 2; Lys 14 side chain K(γE-γE-x53) = (S)-4-Carboxy-4-((S)-4-carboxy-4-hexadecanoylamino-butyrylamino)-butyryl-; Aib at 27; C-terminal amide) [SEQ ID NO: 9] | 0.0118 | 0.0018 | 3.6 | 0.0118 | 0.0018 | 3.6 | 0.0118 | 0.0018 | 3.6
5 | H[dS]QGTFTSDLSKQLDEEAARLFIEWLKAGGPSSGAPPPS-NH2 [SEQ ID NO: 34] | – | – | – | 0.338 | 0.0008 | 26 | – | – | –
6 | H[dS]QGTFTSDLSKQLDEEAARLFIEWL[Aib]AGGPSSGAPPPS-NH2 (N-terminus assumed; SMILES CC[C@H](C)[C@H](NC(=O)[C@H](Cc1ccccc1)NC(=O)[C@H](CC(C)C)NC(=O)[C@H](CCCNC(=N)N)NC(=O)[C@H](C)NC(=O)[C@H](C)NC(=O)[C@H](CCC(=O)O)NC(=O)[C@H](CCC(=O)O)NC(=O)[C@H](CC(=O)O)NC(=O)[C@H](CC(C)C)NC(=O)[C@H](CCC(N)=O)NC(=O)[C@H](CCCCN)NC(=O)[C@H](CO)NC(=O)[C@H](CC(C)C)NC(=O)[C@H](CC(=O)O)NC(=O)[C@H](CO)NC(=O)[C@@H](NC(=O)[C@H](Cc1ccccc1)NC(=O)[C@@H](NC(=O)CNC(=O)[C@H](CCC(N)=O)NC(=O)[C@@H](CO)NC(=O)[C@@H](N)Cc1c[nH]cn1)[C@@H](C)O)[C@@H](C)O)C(=O)N[C@@H](CCC(=O)O)C(=O)N[C@@H](Cc1c[nH]c2ccccc12)C(=O)N[C@@H](CC(C)C)C(=O)NC(C)(C)C(=O)N[C@@H](C)C(=O)NCC(=O)NCC(=O)N1CCC[C@H]1C(=O)N[C@@H](CO)C(=O)N[C@@H](CO)C(=O)NCC(=O)N[C@@H](C)C(=O)N1CCC[C@H]1C(=O)N1CCC[C@H]1C(=O)N1CCC[C@H]1C(=O)N[C@@H](CO)C(N)=O) [SEQ ID NO: 28] | – | – | – | 1.04 | 0.0038 | 343 | – | – | –
